# Test results as given in patent US20140363434A1 (COMPLIX, published 2014).
# B1: AB1_A2aF_hiKR3-V5 (designed binder)
# chain: MSIQQIQKQFKRIQKQIKRIEKQIKRMTGGSGGSGGMSIEEITKQIAAIQLRIVGDQVQIYAMTGGSGGGSGGGSGGGSGGSIEEIKKSIRAIQKEIKKIQKKIKKMTPHHHHHHHHHHGKPIPNPLLGLDST
# notes: Cationized MCL-1 Alphabody with C-terminal His-tag and V5 tag
# B2: tat-013 Alphabody (designed binder)
# chain: YGRKKRRQRRRMSIEEIQKQIAAIQKQIAAIQKQIYAMTGGSGGGSGGGSGGGSGMSIEEIQKQIAAIQKQIAAIQKQIYAMTGGSGGGSGGGSGGGSGMSIEEIQKQIAAIQKQIAAIQKQIYAMTP
# notes: also called tat-tagged control Alphabody scAB013
# B3: MB23_hiR-V5 (designed binder)
# chain: MSIEQIQKEITTIQEVIAAIQKYIYTMTGGSGGSGGMSIQQIQAAIRRIQRAIRRIQRAIRRMTGSGGGGSGMSIEEIQKQIAAIQEQIVAIYKQIMAMASHHHHHHGKPIPNPLLGLDST
# notes: Cationized Alphabody directed against IL-23, used as the negative control; also called control Alphabody MB23_hiR-V5; cationized MB23
# B4: AB1_pan_hiKR3-V5 (designed binder)
# chain: MSIEEIQKQFKRIQKQIKRIAKQIKRMTGGSGGSGGMSIEEIAAQIAAIQLRIIGDQFNIYYMTGSGGGGSGGSIEEIKKSIRAIQKEIKKIQKKIKKMTPHHHHHHHHHHGKPIPNPLLGLDST
# notes: Cationized Alphabody with C-terminal His-tag and V5 tag
# What was measured:
# [1] = biological target: T1, GST-tagged recombinant human MCL-1 (residues 172 to 327) (human, UniProt Q07820 172-327); experiment: ELISA: Alphabody (500 nM) captured by anti-V5 antibody, five-fold dilutions of GST-MCL-1, anti-GST-HRP detection; printed as 'binding affinity'
# T1 construct: Produced in E. coli and purified by the GST tag; also called recombinant MCL-1
# Protocol: (§1) Alphabody (500 nM) was captured by immobilized anti-V5 antibody (5 microg/ml) to a microtiterplate. Binding of five-fold dilutions of Glutathione S transferase (GST)-tagged recombinant BCL-2 family proteins MCL-1 (FIG. 26A), BCL-XL (FIG. 26B) and BCL-2a (FIG. 26C) was detected using a anti-GST antibody conjugated to Horse Radish Peroxidase. Plates were read at 492 nm and 630 nm.
# (§2) Maxisorp Nunc plates were coated with 100 microl anti-V5 antibody (5 microg/ml) in carbonate buffer pH 9.6 overnight at 4° C. The next day, the plates were washed 3 times with Tris Buffered Saline containing 0.05% Tween 20 (TBST) and blocked with TBS containing 0.1% BSA and 0.5% gelatin for 2 h at 37° C. […] Plates were washed 10 times with TBST and five-fold dilutions of Glutathione S transferase (GST) tagged recombinant BCL-2 family proteins (MCL-1, BCL-XL and BCL-2a) were added and further incubated for 2 h at RT while shaking. Binding of GST-tagged recombinant BCL-2 family proteins was detected using an anti-GST antibody conjugated to Horse Radish Peroxidase. Signals were developed by reacting with ortho-phenylenediamine and the reaction was stopped with 4 M H₂SO₄ when the OD reached a value between 2 and 3.
# [2] = biological target: T1, GST-tagged recombinant human MCL-1 …; experiment: ELISA: Alphabody (500 nM) captured by coated anti-V5 antibody; five-fold dilutions of GST-MCL-1 detected with anti-GST antibody-HRP; OD 492/630 nm
# Protocol: as §1, §2
# [3] = biological target: T2, MCL-1 in MCL-1 transfected HEK cell lysate (Santa Cruz) (UniProt Q07820 1-350, limits assumed); experiment: dot blot: MCL-1 transfected HEK cell lysate spotted on nitrocellulose, incubated with Alphabody, detected with anti-His antibody-HRP
# T2 construct: The target was spotted as a whole cell lysate on nitrocellulose, not as purified protein; also called MCL-1 cell lysate; Mcl-1 cell lysate
# [4] = biological target: T3, GST-tagged recombinant human BCL-2 isoform alpha (BCL-2a) with a C-terminal deletion of 32 amino acids (human, UniProt P10415 1-207); experiment: ELISA: Alphabody (500 nM) captured by anti-V5 antibody, five-fold dilutions of GST-BCL-2a, anti-GST-HRP detection; printed as 'binding affinity'
# T3 construct: Produced in E. coli and purified by the GST tag; not shown: Glutathione S Transferase (GST) tag at the N-terminus
# [5] = biological target: T4, GST-tagged recombinant human BCL-XL with a C-terminal deletion of 24 amino acids (human, UniProt Q07817 1-209); experiment: ELISA: Alphabody (500 nM) captured by anti-V5 antibody, five-fold dilutions of GST-BCL-XL, anti-GST-HRP detection; printed as 'binding affinity'
# T4 construct: Produced in E. coli and purified by the GST tag; not shown: Glutathione S Transferase (GST) tag at the N-terminus
# [6] = biological target: T4, GST-tagged recombinant human BCL-XL …; experiment: ELISA: Alphabody (500 nM) captured by coated anti-V5 antibody; five-fold dilutions of GST-BCL-XL detected with anti-GST antibody-HRP; OD 492/630 nm
# Protocol: (§3) Alphabody (500 nM) was captured by immobilized anti-V5 antibody (5 microg/ml) to a microtiterplate. Binding of five-fold dilutions of Glutathione S transferase (GST)-tagged recombinant BCL-2 family proteins MCL-1, BCL-XL and BCL-2a was detected using a anti-GST antibody conjugated to Horse Radish Peroxidase. Plates were read at 492 nm and 630 nm.
# as §2
# [7] = biological target: T1, GST-tagged recombinant human MCL-1 …; experiment: ELISA: Alphabody (500 nM) captured by coated anti-V5 antibody; five-fold dilutions of GST-tagged protein detected with anti-GST antibody-HRP; OD 492/630 nm
# Protocol: as §3, §2
# [8] = biological target: T4, GST-tagged recombinant human BCL-XL …; experiment: as above
# Protocol: as §3, §2
# T1 sequence (Q07820 172-327 limits assumed): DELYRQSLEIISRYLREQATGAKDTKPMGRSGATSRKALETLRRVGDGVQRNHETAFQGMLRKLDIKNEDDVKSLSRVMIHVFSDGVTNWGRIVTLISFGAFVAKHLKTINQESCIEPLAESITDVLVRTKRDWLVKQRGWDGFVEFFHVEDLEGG
# T4 sequence (Q07817 1-209, stated change not applied, form in doubt): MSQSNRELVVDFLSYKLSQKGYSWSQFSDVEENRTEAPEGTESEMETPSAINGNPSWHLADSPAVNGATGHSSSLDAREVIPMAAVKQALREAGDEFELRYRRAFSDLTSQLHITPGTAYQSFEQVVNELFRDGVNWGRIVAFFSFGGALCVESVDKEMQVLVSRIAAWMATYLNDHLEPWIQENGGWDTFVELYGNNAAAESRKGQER
# T2 sequence (Q07820 whole entry): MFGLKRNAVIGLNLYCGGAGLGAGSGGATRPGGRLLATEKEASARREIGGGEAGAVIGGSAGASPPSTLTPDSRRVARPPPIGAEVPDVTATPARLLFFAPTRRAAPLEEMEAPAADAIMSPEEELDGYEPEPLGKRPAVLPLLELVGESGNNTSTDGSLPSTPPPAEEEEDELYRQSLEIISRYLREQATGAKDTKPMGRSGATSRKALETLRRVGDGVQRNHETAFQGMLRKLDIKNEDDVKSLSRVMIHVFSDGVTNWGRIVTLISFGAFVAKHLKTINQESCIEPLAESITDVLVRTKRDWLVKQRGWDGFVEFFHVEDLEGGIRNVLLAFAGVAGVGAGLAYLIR
# T3 sequence (P10415 1-207, stated change not applied, form in doubt): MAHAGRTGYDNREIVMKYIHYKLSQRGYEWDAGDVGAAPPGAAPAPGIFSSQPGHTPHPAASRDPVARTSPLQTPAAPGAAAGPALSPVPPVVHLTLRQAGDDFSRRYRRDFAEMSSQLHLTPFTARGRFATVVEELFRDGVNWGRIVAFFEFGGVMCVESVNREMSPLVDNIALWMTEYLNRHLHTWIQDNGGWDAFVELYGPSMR
binder,measurement,setting,value
B1,Kd,[1],1 nM
same,EC50 (read off the curve),[2],~1 nM
B2,binding result,[3],no binding (tested: 10 uM)
B3,binding result,[2],no binding (tested: 200 nM)
B4,Kd,[1],~1.9 nM
same,Kd,[4],~18.7 nM
same,Kd,[5],~4.5 nM
same,EC50 (read off the curve),[2],~2 nM
same,EC50 (read off the curve),[6],~4 nM
same,EC50 (read off the curve),[7],~2 nM
same,EC50 (read off the curve),[8],~4 nM
